In the assay the target is Fhb7. Nature of the assay: crystal structure.

Take Fhb7 (enzyme): the stoichiometry N (as a rule, the number of molecules, sites or subunits per partner or assembly) worked out at 2.

(Values after article PMC10900206.)
